{"source": "patent US20220265772A1", "about": "“USES OF DAN FAMILY BMP ANTAGONISTS FOR INHIBITING OCULAR NEOVASCULARIZATION AND TREATING OCULAR CONDITIONS” (9636137 Canada Inc., priority 2019, published 2022)", "molecules": {"B1": {"name": "DAND5: human recombinant DAND5/COCO biologically active fragment produced in E. coli, predicted 18.2 kDa monomer, R&D systems 3047-CC-050 (protein)", "chain": "MRPEPQSPRPQSWAAANQTWALGPGALPPLVPASALGSWKAFLGLQKARQLGMGRLQRGQDEVAAVTLPLNPQEVIQGMCKAVPFVQVFSRPGCSAIRLRNHLCFGHCSSLYIPGSDPTPLVLCNSCMPARKRWAPVVLWCLTGSSASRRRVKISTMLIEGCHCSPKA"}}, "key": {"Wnt signaling": {"test_system": "Wnt signaling", "conditions": "previous study (5); cited from earlier work"}, "[1]": {"test_system": "choroidal neovascularization", "assay": "Laser-induced choroidal neovascularization (CNV)", "format": "in vivo, mouse", "procedure": "Three-month-old C57BL/6J mice were anesthetised with a ketamine/xylazine mix prior to applying a photocoagulating laser (400 mW intensity, 0.05 s exposure time). Four spots were burned around the optical nerve. Mice received 100 ng of recombinant human DAND5 intravitreally or similar volume of vehicle in the contralateral eye. Eyes were enucleated after 14 days and processed for immunostaining.\nOcular globes were initially fixed for 15 min in 4% paraformaldehyde (PFA). Retinas or choroids were collected after eyes dissection in PBS and blocked 1 h in PBS 3% BSA 0.1% Triton X-100™. Fixation was prolonged in 1% PFA overnight for choroid extraction or eyes sectioning. […] Quantitative analysis of tufts, vaso-obliterated or vessel areas were performed using imageJ/Swift_NV™ as previously described (1). Neovascular tuft formation was quantified by comparing the number of pixels in the affected areas with the total number of pixels in the retina. The avascular area in the retina was measured in the same way using an anti-DAND5/COCO polyclonal goat IgG antibody (AF3047, R&D systems).\nThe effects of DAND5 on choroidal neovascularization (CNV) were also evaluated by subjecting mice to laser-induced CNV, a model which recapitulates the CNV occurring in wet AMD patients. […]"}, "mitochondria": {"test_system": "mitochondria", "assay": "Immunofluorescence localization of DAND5 in treated HUVECs", "format": "cell-based, human", "conditions": "HUVECs exposed for 1 h", "procedure": "FIG. 9: HUVECs were plated to confluence and exposed or not to Dand5 for 1 hour. Dand5 was not detected before treatment in HUVECs (not shown).\nTo test where DAND5 is localizes in treated HUVECs, we exposed HUVECs to human recombinant DAND5 for 1 h and performed immune-fluorescence using human anti-mitochondrial antigen antibody and a human anti-DAND5 antibody."}, "Wnt-induced angiogenesis": {"test_system": "Wnt-induced angiogenesis", "assay": "Wnt1 and DAND5 co-injection during retinal vascular development (P1 to P5)", "format": "in vivo, mouse", "conditions": "quantification of vascular branches in treated eyes", "procedure": "FIG. 13 is a panel with pictures and graphs showing that Dand5 opposes Wnt1-mediated hypervascularization during retinal vascular development. FIG. 13A: Schematic representation of experimental design. C57B6 pups were injected at P1 with PBS, Dand5 (60 ng/mL), Wnt1, or Wnt1 and Dand5 together at various molar ratios (1N, 5N and 10N). FIG. 13B: Representative images of retinas treated with PBS, Dand5 (1N) or Wnt1 (1N). FIG. 13C: Representative images of retinas treated with PBS or with Wnt1 (5N and 10N) alone or in combination with Danb5. Dand5 Flatmounts retinas were stained with Isolectin B4 to visualize the vasculature. FIG. 13D: Quantification of vascular branches in treated eyes. […] To address the antagonism of DAND5 on Wnt-induced angiogenesis, retinas were injected with recombinant DAND5 (60 ng) with increasing concentrations of Wnt1 (0, 1, 5 or 10× molar ratio) at P1 and retinas were harvested at P5 (FIG. 13A)."}, "LDHA": {"test_system": "LDHA", "assay": "AMPLI-seq transcriptome analysis of HUVECs", "format": "cell-based, human", "conditions": "HUVECs treated for 6 and 16 h", "procedure": "FIG. 7 is a panel with a schematic and graphs showing that DAND5 modifies the metabolic transcriptional program in cultured endothelial cells. HUVECs were treated for 6 and 16 h with either PBS or DAND5, before RNA extraction. RNA was reverse-transcribed and cDNA amplified using IonTorrent Ampliseq™ Transcriptome Human Gene Expression kit. FIG. 7A: Heat map of metabolism-related genes.\nWe performed AMPLI-seq analysis of HUVECs exposed or not to recombinant DAND5. […] Lactate de-hydrogenase A (LDHA) regulates lactate metabolism during anaerobic respiration."}, "[2]": {"test_system": "retinal vascular development", "format": "in vivo, mouse", "procedure": "Animals were anaesthetized with isofluorane. A 10 μL Hamilton syringe with a glass-pulled capillary was inserted with a 45° injection angle into the vitreous. When accessing the role of DAND5 developmentally, animals were injected at P1 (DAND5:100 ng; or PBS: 1 μl) and were euthanized at P5 to quantify vascular growth. The DAND5 used for the injection was a human recombinant DAND5/COCO biologically active fragment produced in E. coli and purified by SDS-PAGE (Arg23-Ala189 with an N-terminal Met, predicted 18.2 kDa monomer, R&D systems; 3047-CC-050). During the neovascularization phase of OIR, animals were injected at P12 (2 μL) before sacrifice at P17 for quantification of neovascularization. For adult mice and laser-induced neovascularization, intravitreal injections were performed under a surgical microscope. Mice were anaesthetized with isofluorane. Pupils were dilated using 1% tropicamide. A 33-gauge needle was inserted from the limbus with a 45° injection angle into the vitreous. The direction and location of the needle was monitored through the surgical microscope.\nOcular globes were initially fixed for 15 min in 4% paraformaldehyde (PFA). Retinas or choroids were collected after eyes dissection in PBS and blocked 1 h in PBS 3% BSA 0.1% Triton X-100™. Fixation was prolonged in 1% PFA overnight for choroid extraction or eyes sectioning. Prior to sectioning, eyes were maintained in sucrose gradients (10-30%), cryo-preserved in a matrix gel and sliced in 14 μm sections on a cryostat (Leica™ CM3050S). Staining with either FITC-labeled isolectin GS 1B4 (Life technologies corporation), rhodamine phalloidin (Cedarlane Laboratories), phospho-histone H3 (Abcam), Collagen IV (Abcam) or cleaved caspase-3 (Cell Signaling) antibodies were performed on whole and/or sectioned retinas/choroids. Retinas and choroids were then mounted in fluoromount aqueous medium (Sigma-Aldrich). Quantitative analysis of tufts, vaso-obliterated or vessel areas were performed using imageJ/Swift_NV™ as previously described (1). Neovascular tuft formation was quantified by comparing the number of pixels in the affected areas with the total number of pixels in the retina. The avascular area in the retina was measured in the same way using an anti-DAND5/COCO polyclonal goat IgG antibody (AF3047, R&D systems).\nAs DAND5 prevents VEGF-induced EC sprouting, proliferation and migration, we evaluated whether it could inhibit retinal vascular development. Newborn mouse pups (P1) received intravitreal injections of recombinant DAND5 (100 ng), and retinas were harvested after 4 days (P5) (FIG. 2A).\nBlood vessels constrict in the course of vessel regression and EC retract, leaving behind empty BM sleeves."}, "[3]": {"conditions": "100 ng at P1, P5, compared with PBS-injected eyes"}}, "note": "Like-named read-outs stand apart in the source and are kept apart here.", "data": [{"molecule": "B1", "values": [{"measurement": "Wnt signaling in photoreceptors", "setting": "Wnt signaling", "result": "potent inhibitor of Wnt signaling in photoreceptors"}, {"measurement": "inhibitory effect on retinal and choroidal neovascularization compared with Flt1Fc", "setting": "[1]; OIR and laser-induced CNV together", "result": "significantly better than VEGF inhibition with Flt1Fc"}, {"measurement": "area of CNV", "setting": "[1]; laser impact, intravitreal delivery, 14 days, compared with controls", "result": "significant decrease in the area of CNV"}, {"measurement": "co-localization with mitochondria", "setting": "mitochondria", "result": "robust co-localization of DAND5 with mitochondria"}, {"measurement": "co-localization with mitochondria", "setting": "mitochondria; listed as Dand5", "result": "co-localizes with mitochondria"}, {"measurement": "mutual antagonism on vascular branches", "setting": "Wnt-induced angiogenesis", "result": "mutually antagonist activities"}, {"measurement": "LDHA expression", "setting": "LDHA", "result": "down-regulation of LDHA"}, {"measurement": "number of vascular branch points", "setting": "[2]; 100 ng at P1, P5", "result": "reduced number of vascular branch points"}, {"measurement": "microvessel density (ratio of vessel area to vascularized area)", "setting": "[2]; [3]", "result": "pronounced reduction"}, {"measurement": "vessel area (area covered by vessels)", "setting": "[2]; [3]", "result": "pronounced reduction of vessel area"}, {"measurement": "EC proliferation in retinal vasculature (pH3)", "setting": "[2]; P1 injection, P5", "result": "reduced EC proliferation"}, {"measurement": "empty type IV collagen (ColIV) BM sleeves", "setting": "[2]; P1 injection, P5", "result": "significantly higher numbers of empty type IV collagen (ColIV) BM sleeves"}, {"measurement": "inhibition of retinal neovascularization compared with VEGF inhibitor (mouse Flt1 Fc)", "setting": "[2]; P1 injection, P5", "result": "significantly more pronounced than that of a VEGF inhibitor (mouse Flt1 Fc)"}, {"measurement": "empty type IV collagen (ColIV) BM sleeves", "setting": "[2]; P1 injection, P5, listed as Dand5", "result": "increased"}, {"measurement": "blood vessel development", "setting": "[2]; intravitreal 100 ng at P1, retinas at P5", "result": "dramatic inhibition of blood vessel development"}, {"measurement": "apoptosis in retinal vasculature (CC3)", "setting": "[2]; mouse, in vivo", "result": "no change in apoptosis"}, {"measurement": "necroptosis in retinal vasculature (Rip3)", "setting": "[2]; mouse, in vivo", "result": "no change in apoptosis (FIG. 11D, E) or necroptosis"}, {"measurement": "photoreceptor morphology or apoptosis", "setting": "[2]; mouse, in vivo", "result": "did not affect"}, {"measurement": "retinal pericyte coverage", "setting": "[2]; mouse, in vivo", "result": "did not affect retinal pericyte coverage"}]}]}
